Test results taken from patent publication US20170101470A1 (PROTHENA BIOSCIENCES, published 2017).

T1: recombinant hMCAM-His (human, UniProt P43121 24-559)
T1 chain: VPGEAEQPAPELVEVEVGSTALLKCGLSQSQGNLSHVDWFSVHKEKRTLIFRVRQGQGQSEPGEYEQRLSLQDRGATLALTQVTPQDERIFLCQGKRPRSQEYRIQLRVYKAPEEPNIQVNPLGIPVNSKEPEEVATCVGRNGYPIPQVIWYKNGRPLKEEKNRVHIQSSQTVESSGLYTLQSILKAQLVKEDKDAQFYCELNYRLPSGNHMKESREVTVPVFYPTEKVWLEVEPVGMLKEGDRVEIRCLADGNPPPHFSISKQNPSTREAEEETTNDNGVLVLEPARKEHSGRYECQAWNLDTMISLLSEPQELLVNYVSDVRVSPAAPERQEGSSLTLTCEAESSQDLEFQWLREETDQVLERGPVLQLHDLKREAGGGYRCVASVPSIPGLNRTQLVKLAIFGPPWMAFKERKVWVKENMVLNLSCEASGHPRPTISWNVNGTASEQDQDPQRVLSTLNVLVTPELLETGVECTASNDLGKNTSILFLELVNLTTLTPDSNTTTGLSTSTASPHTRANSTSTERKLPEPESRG

B1: human MCAM expressed on CHO cells (full length human MCAM gene) (receptor)
chain: VPGEAEQPAPELVEVEVGSTALLKCGLSQSQGNLSHVDWFSVHKEKRTLIFRVRQGQGQSEPGEYEQRLSLQDRGATLALTQVTPQDERIFLCQGKRPRSQEYRIQLRVYKAPEEPNIQVNPLGIPVNSKEPEEVATCVGRNGYPIPQVIWYKNGRPLKEEKNRVHIQSSQTVESSGLYTLQSILKAQLVKEDKDAQFYCELNYRLPSGNHMKESREVTVPVFYPTEKVWLEVEPVGMLKEGDRVEIRCLADGNPPPHFSISKQNPSTREAEEETTNDNGVLVLEPARKEHSGRYECQAWNLDTMISLLSEPQELLVNYVSDVRVSPAAPERQEGSSLTLTCEAESSQDLEFQWLREETDQVLERGPVLQLHDLKREAGGGYRCVASVPSIPGLNRTQLVKLAIFGPPWMAFKERKVWVKENMVLNLSCEASGHPRPTISWNVNGTASEQDQDPQRVLSTLNVLVTPELLETGVECTASNDLGKNTSILFLELVNLTTLTPDSNTTTGLSTSTASPHTRANSTSTERKLPEPESRGVVIVAVIVCILVLAVLGAVLYFLYKKGKLPCRRSGKQEITLPPSRKTELVVEVKSDKLPEEMGLLQGSSGDKRAPGDQGEKYIDLRH
notes: also called hMCAM expressing CHO cells; CD146

Key:
[1] = target: T1, recombinant hMCAM-His; assay: competitive ELISA on coated hMCAM-His, competitor biotinylated rodent or chimeric 2120; IC50 relative to rodent 2120
Experimental: (§1) The apparent affinities of the humanized antibodies were compared to the parental rodent or chimeric antibody in a competitive ELISA according to the following protocol: ELISA plates were coated with recombinant hMCAM-His, and blocked with casein buffer to prevent non-specific binding. Biotinylated rodent or chimeric antibody was added at a subsaturating concentration, in the presence or absence of 3× increasing concentrations of unlabeled competitor (humanized antibody, rodent, or chimeric). After washing to remove unbound antibody, streptavidin HRP was added to allow detection of the biotinylated antibody. The ELISA was developed with TMB substrate and the OD450 was measured. The IC50 of the unlabeled competitor was determined using the GraphPad Prism5 software.

[2] = target: T1, recombinant hMCAM-His; assay: ForteBio Octet Red, antibody on anti-human Fc sensors, hMCAMHis analyte, 1:1 fit; affinity relative to rodent 2120, Expt. #1
Experimental: (§2) The affinities were measured using the ForteBio Octet Red. Anti-human Fc sensors were used to capture the humanized antibodies, and several concentrations of hMCAMHis analyte were used to determine the affinity using a 1:1 fitting model.

[3] = target: T1, recombinant hMCAM-His; assay: ForteBio Octet Red, antibody on anti-human Fc sensors, hMCAMHis analyte, 1:1 fit; affinity relative to rodent 2120, Expt. #2
Experimental: as §2

[4] = target: T1, recombinant hMCAM-His; assay: competitive ELISA on coated hMCAM-His, competitor biotinylated rodent or chimeric 2120; IC50 relative to rodent 2120, Expt. #1
Experimental: as §1

[5] = target: T1, recombinant hMCAM-His; assay: competitive ELISA on coated hMCAM-His, competitor biotinylated rodent or chimeric 2120; IC50 relative to rodent 2120, Expt. #2
Experimental: as §1

[6] = target: B1; assay: laminin/FACS assay: blocking of recombinant laminin 411 binding to hMCAM expressing CHO cells, relative to rodent 2120, Expt#1
Experimental: (§3) Following incubation for 30-45 minutes, the cells were washed and anti-laminin conjugated to AF650 (NovusBio) was added to detect the bound laminin. The cells were run on a flow cytometer to measure the laminin binding signal.

[7] = target: B1; assay: laminin/FACS assay: blocking of recombinant laminin 411 binding to hMCAM expressing CHO cells, relative to rodent 2120, Expt#2
Experimental: as §3

[8] = target: T1, recombinant hMCAM-His; assay: ForteBio Octet Red, antibody on anti-human Fc sensors, hMCAMHis analyte, 1:1 fit; affinity relative to rodent 2120, first Forte column
Experimental: as §2

[9] = target: T1, recombinant hMCAM-His; assay: ForteBio Octet Red, antibody on anti-human Fc sensors, hMCAMHis analyte, 1:1 fit; affinity relative to rodent 2120, second Forte column
Experimental: as §2

[10] = target: T1, recombinant hMCAM-His; assay: summary of ForteBio and competitive ELISA on hMCAM-His
Experimental: as §1, §2

[11] = target: B1; assay: summary of laminin blocking assay on hMCAM expressing CHO cells
Experimental: as §3

[12] = target: T2, recombinant laminin 511 (UniProt O15230 36-3695; P07942 22-1786; P11047 34-1609); assay: flow cytometry with a pan-laminin antibody on CHO cells transfected with human MCAM
T2 construct: also called laminin 10 (α5β1γ1)

[13] = target: laminin α-4 (UniProt Q16363 25-1823); assay: FACS on MCAM mutants displayed on mammalian cells
laminin α-4, sequence (Q16363 25-1823): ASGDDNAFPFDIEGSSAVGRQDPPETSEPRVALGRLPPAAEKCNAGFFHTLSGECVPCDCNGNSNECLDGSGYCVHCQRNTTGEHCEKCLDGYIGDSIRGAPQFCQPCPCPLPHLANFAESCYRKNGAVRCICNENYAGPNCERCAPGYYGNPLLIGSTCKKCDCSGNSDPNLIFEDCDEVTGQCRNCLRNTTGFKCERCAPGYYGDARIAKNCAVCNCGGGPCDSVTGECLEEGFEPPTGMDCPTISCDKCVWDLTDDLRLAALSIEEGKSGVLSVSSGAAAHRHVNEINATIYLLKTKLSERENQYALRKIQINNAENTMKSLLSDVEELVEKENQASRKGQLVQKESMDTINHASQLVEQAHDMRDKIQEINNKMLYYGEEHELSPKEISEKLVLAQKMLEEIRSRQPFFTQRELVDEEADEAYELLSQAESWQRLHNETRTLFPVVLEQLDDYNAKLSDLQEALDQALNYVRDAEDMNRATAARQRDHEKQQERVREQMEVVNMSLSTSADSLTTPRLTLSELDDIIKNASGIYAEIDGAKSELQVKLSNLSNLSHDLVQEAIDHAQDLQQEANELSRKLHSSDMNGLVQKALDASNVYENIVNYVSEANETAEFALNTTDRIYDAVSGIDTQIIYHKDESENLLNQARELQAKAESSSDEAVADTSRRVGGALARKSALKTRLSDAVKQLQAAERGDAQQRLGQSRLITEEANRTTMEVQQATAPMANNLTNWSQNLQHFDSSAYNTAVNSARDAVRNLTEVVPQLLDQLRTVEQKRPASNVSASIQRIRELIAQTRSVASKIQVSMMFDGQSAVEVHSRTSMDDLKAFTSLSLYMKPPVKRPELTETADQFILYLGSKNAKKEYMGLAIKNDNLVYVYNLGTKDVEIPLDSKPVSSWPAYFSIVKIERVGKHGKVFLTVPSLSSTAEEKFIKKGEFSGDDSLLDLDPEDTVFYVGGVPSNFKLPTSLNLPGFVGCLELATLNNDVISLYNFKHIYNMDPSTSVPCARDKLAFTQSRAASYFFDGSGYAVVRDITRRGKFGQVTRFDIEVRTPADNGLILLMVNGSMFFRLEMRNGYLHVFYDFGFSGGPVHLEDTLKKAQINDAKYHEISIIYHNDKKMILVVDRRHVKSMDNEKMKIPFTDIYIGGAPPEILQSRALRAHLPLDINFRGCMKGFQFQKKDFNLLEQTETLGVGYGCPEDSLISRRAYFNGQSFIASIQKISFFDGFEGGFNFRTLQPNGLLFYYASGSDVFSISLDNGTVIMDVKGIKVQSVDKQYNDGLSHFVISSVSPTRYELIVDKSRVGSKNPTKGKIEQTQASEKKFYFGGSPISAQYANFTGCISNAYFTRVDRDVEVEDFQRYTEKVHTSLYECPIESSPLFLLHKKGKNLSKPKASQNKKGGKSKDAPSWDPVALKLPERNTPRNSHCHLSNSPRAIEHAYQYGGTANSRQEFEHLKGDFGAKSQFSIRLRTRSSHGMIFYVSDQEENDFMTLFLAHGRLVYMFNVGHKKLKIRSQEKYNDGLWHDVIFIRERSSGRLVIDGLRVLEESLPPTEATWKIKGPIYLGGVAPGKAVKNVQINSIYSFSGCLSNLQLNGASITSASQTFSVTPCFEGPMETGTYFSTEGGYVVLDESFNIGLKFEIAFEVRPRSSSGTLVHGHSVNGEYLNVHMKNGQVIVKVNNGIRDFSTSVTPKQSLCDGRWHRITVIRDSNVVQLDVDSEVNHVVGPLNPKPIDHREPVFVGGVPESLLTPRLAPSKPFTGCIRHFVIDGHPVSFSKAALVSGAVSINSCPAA

| Fold over rodent (ELISA) [1] | Fold over rodent (Forte) [2] | Fold over rodent (Forte) [3] | Fold over rodent (ELISA) [4] | Fold over rodent (ELISA) [5] | Fold over rodent (Blocking) [6] | Fold over rodent (Blocking) [7] | Fold over rodent (Forte) [8] | Fold over rodent (Forte) [9] | also measured | Binder |
| --- | --- | --- | --- | --- | --- | --- | --- | --- | --- | --- |
| 1.8 fold | 5.64 fold | 6.21 fold | 2.23 fold | 2.42 fold | 1.7 fold | 2.8 fold | 5.9 fold | 5.8 fold | – | humanized anti-MCAM antibody h2120_VH1 + h2120_VL3 (antibody, V domains shown, V regions cloned into vectors containing human CK (VL) or human IgG1 (VH); also called h2120VH1VL3; Standard VH + conservative VL) VH: QVTLKESGPVLVKPTETLTLTCTVSGFSLTSNGVSWVRQPPGKALEWIAAISSGGTTYYNSAFKSRLTISRDTSKSQVVLTMTNMDPVDTATYYCARRYGYGWYFDFWGQGTLVTVSS VL: DIQMTQSPSSLSASVGDRVTINCKASQNIYNSLAWYQQKPGKAPKVLIFNANSLQTGIPSRFSGSGSGTDFTLTISSLQPEDFATYYCQQFYSGYTFGQGTKLEIK |
| 2.4 fold | – | – | – | – | 1.2 fold | 1.5 fold | 1.1 fold | 1.2 fold | reduction in affinity (fold, against rodent 2120) [10]: < 2 fold; reduction in potency (fold, against rodent 2120) [11]: < 2 fold | humanized anti-MCAM antibody h2120_VH5 + h2120_VL3 (antibody, V domains shown, Human IgG1 / human kappa; also called h2120VH5VL3; VH5VL3) VH: QVTLKESGPVLVKPTETLTLTCTVSGFSLTSNAVSWVRQPPGKALEWIAAISSGGTTYYNSAFKSRLTISRDTSKSQVVLTMTNMDPVDTATYYCARRYGYGWYFDFWGQGTLVTVSS VL: DIQMTQSPSSLSASVGDRVTINCKASQNIYNSLAWYQQKPGKAPKVLIFNANSLQTGIPSRFSGSGSGTDFTLTISSLQPEDFATYYCQQFYSGYTFGQGTKLEIK |
| – | 6.57 fold | 6.43 fold | 1.93 fold | 2.62 fold | – | – | – | – | – | humanized anti-MCAM antibody h2120_VH2 + h2120_VL3 (antibody, V domains shown, Human IgG1 / human kappa; also called h2120VH2VL3; Conservative VH + conservative VL) VH: QVTLKESGPVLVKPTETLTLTCTVSGFSLTSNGVSWVRQPPGKALEWIAAISSGGTTYYNSAFKSRLSISRDTSKSQVVLTMTNMDPVDTATYYCARRYGYGWYFDFWGQGTLVTVSS VL: DIQMTQSPSSLSASVGDRVTINCKASQNIYNSLAWYQQKPGKAPKVLIFNANSLQTGIPSRFSGSGSGTDFTLTISSLQPEDFATYYCQQFYSGYTFGQGTKLEIK |
| – | – | – | – | – | – | – | – | – | binding result [12]: no binding (tested: 10 µg/ml) | B1 |
| – | – | – | – | – | – | – | – | – | binding result [13]: no binding | human MCAM Y318A mutant displayed on mammalian cells (Example 5) (receptor, construct and any tag not described) VPGEAEQPAPELVEVEVGSTALLKCGLSQSQGNLSHVDWFSVHKEKRTLIFRVRQGQGQSEPGEYEQRLSLQDRGATLALTQVTPQDERIFLCQGKRPRSQEYRIQLRVYKAPEEPNIQVNPLGIPVNSKEPEEVATCVGRNGYPIPQVIWYKNGRPLKEEKNRVHIQSSQTVESSGLYTLQSILKAQLVKEDKDAQFYCELNYRLPSGNHMKESREVTVPVFYPTEKVWLEVEPVGMLKEGDRVEIRCLADGNPPPHFSISKQNPSTREAEEETTNDNGVLVLEPARKEHSGRAECQAWNLDTMISLLSEPQELLVNYVSDVRVSPAAPERQEGSSLTLTCEAESSQDLEFQWLREETDQVLERGPVLQLHDLKREAGGGYRCVASVPSIPGLNRTQLVKLAIFGPPWMAFKERKVWVKENMVLNLSCEASGHPRPTISWNVNGTASEQDQDPQRVLSTLNVLVTPELLETGVECTASNDLGKNTSILFLELVNLTTLTPDSNTTTGLSTSTASPHTRANSTSTERKLPEPESRGVVIVAVIVCILVLAVLGAVLYFLYKKGKLPCRRSGKQEITLPPSRKTELVVEVKSDKLPEEMGLLQGSSGDKRAPGDQGEKYIDLRH |
